Measured values reported in US6528283.

Experiments:
Test in all cases: cell-based or functional assay
Settings in all cases: scale: β-galactosidase activity units
[1] = molecular target: hD52 bait (GAL4 DNA-binding domain fused to full-length hD52, pAS2-1hD52) (human)
[2] = molecular target: GAL4 DNA-binding domain alone (empty pAS2-1 vector, negative control bait) (UniProt P04386)
[3] = molecular target: hD54+ins2 bait (GAL4 DNA-binding domain fused to hD54+ins2, pAS2-1hD54+ins2) (human)
[4] = molecular target: hD53 bait (GAL4 DNA-binding domain fused to full-length hD53, pAS2-1hD53) (human)
[5] = molecular target: hD54-ins2 bait (GAL4 DNA-binding domain fused to hD54-ins2, pAS2-1hD54-ins2) (human)
[6] = molecular target: mD52 bait (GAL4 DNA-binding domain fused to full-length mD52, pAS2-1mD52) (mouse)
[7] = molecular target: mD52(1-95) bait (GAL4 DNA-binding domain fused to the N-terminal half of mD52, pAS2-1mD52(1-95)) (mouse)
[8] = molecular target: mD52 bait (GAL4 DNA-binding domain fused to full-length mD52, pAS2-1mD52) (mouse); remark: listed apart in the source
[9] = molecular target: mD52(95-185) bait (GAL4 DNA-binding domain fused to the C-terminal half of mD52, pAS2-1mD52(95-185)) (mouse)

Substance | β-galactosidase activity, yeast two-hybrid (Y190) [1] | β-galactosidase activity, yeast two-hybrid (Y190) [2] | β-galactosidase activity, yeast two-hybrid (Y190) [3] | β-galactosidase activity, yeast two-hybrid (Y190) [4] | β-galactosidase activity, yeast two-hybrid (Y190) [5] | β-galactosidase activity, yeast two-hybrid (Y190) [6] | β-galactosidase activity, yeast two-hybrid (Y190) [7] | β-galactosidase activity, yeast two-hybrid (Y190) [8] | β-galactosidase activity, yeast two-hybrid (Y190) [9]
hD54+ins2 interactor (GAL4 activation domain fused to hD54+ins2, pACT2hD54+ins2) (from UniProt P04386 768-881) | 2.03 | 0 | 5.98 | 6.01 | 3.51 | 0.48 | – | – | –
hD54-ins2 interactor (GAL4 activation domain fused to hD54-ins2, pACT2hD54-ins2) (from UniProt P04386 768-881) | 1.15 | 0.45 | 2.03 | 2.26 | 1.07 | 0.44 | – | – | –
GAL4 activation domain alone (empty pACT2 vector, negative control interactor) (from UniProt P04386 768-881) | 0 | 0 | 0 | 0.14 | 0 | 0 | 0.36 | 0.34 | 0.23
mD52(1-163) interactor (GAL4 activation domain fused to mD52 amino acids 1-163, pACT2mD52(1-163)) (from UniProt P04386 768-881) | 1.3 | 0 | 4.25 | 5.71 | 2.37 | 0.42 | – | – | –
hD52 interactor (GAL4 activation domain fused to hD52, pAD-GAL4hD52, library clone starting at nt 46) (from UniProt P04386 761-881) | 0.87 | 0.17 | 0.85 | 3 | 1.74 | 0.16 | – | – | –
